Reference: PMC3289634
“And” between values parts separate entries of the source, which are not always exact repeats. Identical values can stand only once.

Assays:
Max-E47 protein chimera [1] = molecular target: Max-E47 protein chimera (UniProt P61244); assay: SEC; Superdex-75 column, against molecular weight markers
Max-E47 protein chimera [2] = molecular target: Max-E47 protein chimera (UniProt P61244); assay: AUC; sedimentation velocity, 20.0°C, 50,000 rpm, Rayleigh interference; loading concentrations 3-130 µM; 20 mM Tris pH 8.0, 0.1 M NaCl, 10 mM 2-mercaptoethanol, 5% (v/v) glycerol
Max-E47 protein chimera [3] = molecular target: Max-E47 protein chimera (UniProt P61244); assay: AUC; sedimentation equilibrium, 16.0°C, 14,000-35,000 rpm, Rayleigh interference; 20 mM Tris pH 8.0, 0.15 M NaCl, 10 mM 2-mercaptoethanol; loading concentrations 5-25; the constant is of dimer to monomers
[4] = molecular target: Max-E47YF cloning variant (Max-E47-V51Y/V59F) (UniProt P61244); assay: as above

Substance | stoichiometry N (Max-E47 protein chimera [1]) | stoichiometry N (Max-E47 protein chimera [2]) | stoichiometry N (Max-E47 protein chimera [3]) | Kd [4] | stoichiometry N [4]
Max-E47 protein chimera (from UniProt P61244 22-36; P15923-2 349-400) (designed binder) | 2 | 2 and 4 | 2 and 4 |  | 
Max-E47YF cloning variant (Max-E47-V51Y/V59F) (from UniProt P61244 22-36) (designed binder) |  |  |  | < 1 nM | 2
